The record followed here is US20230106715A1 (BIOSION, published 2023).

Usually EC50 stands for the concentration needed to bring the measured effect to its halfway point. One may read the Kd as the equilibrium constant for the complex coming apart. For orientation: koff means a measure of how fast the partners let go of each other. As a reminder, the kon is the rate constant with which the complex forms. As a reminder, the IC50 is the concentration that gives 50% inhibition.

Read-outs that look alike come from different tables or passages of the source.

Test [1] addresses T1, human Siglec15 on human-siglec15-2D3-1E1 cells (human, UniProt Q6ZMC9 20-328).
T1 construct: whole, on cells; Transfected HEK-293 cells; also called cell surface human Siglec15
T1 sequence (looked up): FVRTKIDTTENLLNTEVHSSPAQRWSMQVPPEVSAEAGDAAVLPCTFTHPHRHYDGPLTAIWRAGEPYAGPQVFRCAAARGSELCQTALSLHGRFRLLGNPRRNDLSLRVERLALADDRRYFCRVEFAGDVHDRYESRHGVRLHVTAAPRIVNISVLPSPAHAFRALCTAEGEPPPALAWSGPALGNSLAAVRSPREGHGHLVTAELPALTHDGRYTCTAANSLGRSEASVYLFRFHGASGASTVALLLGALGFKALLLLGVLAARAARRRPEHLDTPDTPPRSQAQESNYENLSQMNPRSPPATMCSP
Description: cell based binding FACS on human-siglec15-2D3-1E1 cells. On the procedure:
The binding activities of the anti-Siglec15 antibodies to cell surface Siglec15 were tested by flow cytometry (FACS), using in-house prepared human-siglec15-2D3-1E1 cells expressing human Siglec15 (amino acid residues Met1-Pro328 of uniprot #Q6ZMC9) on cell membranes. The human-siglec15-2D3-1E1 cells were prepared by transfecting HEK-293 cells (ATCC #CRL-1573) with pCMV-T-P plasmids inserted with human Siglec15 coding sequence between EcoRI and XbaI sites, following the instruction of lipofectamine 3000 transfection reagent (Thermo Fisher). The human-siglec15-2D3-1E1 cells were harvested from cell culture flasks, washed twice and re-suspended in phosphate buffered saline (PBS) containing 2% v/v Fetal Bovine Serum (FACS buffer). 2×10⁵ cells per well in 96 well-plates were incubated in 100 μL serially diluted anti-Siglec15 antibodies or controls (starting at 66.67 nM, 5-fold serial dilution) in FACS buffer for 40 minutes on ice. […] Following a 40-minute incubation at 4° C. in dark, cells were washed three times and re-suspended in FACS buffer. Fluorescence was measured using a Becton Dickinson FACS Canto II-HTS equipment. Data was analyzed using Graphpad Prism software and EC₅₀ values were reported.

Test [2] has as its target T2, recombinant human Siglec15-his protein (human, UniProt Q6ZMC9 20-263).
T2 construct: In house made; Biotin-labeled in the capture ELISA
T2 sequence: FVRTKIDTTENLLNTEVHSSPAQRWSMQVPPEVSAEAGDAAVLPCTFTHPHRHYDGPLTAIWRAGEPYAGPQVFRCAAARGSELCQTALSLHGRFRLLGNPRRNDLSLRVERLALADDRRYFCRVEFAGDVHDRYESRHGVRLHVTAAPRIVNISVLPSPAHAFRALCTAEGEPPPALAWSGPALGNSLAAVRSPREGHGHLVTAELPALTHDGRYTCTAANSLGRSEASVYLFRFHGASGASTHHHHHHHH
The experiment in a line: SPR Biacore T200, antibody captured by anti-human IgG, antigen as analyte, 1:1 fit. On the procedure:
(§1) Briefly, goat anti-human IgG (GE healthcare, Cat #BR100839, Human Antibody Capture Kit) was covalently linked to a CM5 chip (carboxy methyl dextran coated chip, GE healthcare, Cat #BR-1005-30) via primary amines, using a standard amine coupling kit provided by Biacore (GE healthcare, Pittsburgh, Pa., USA). Un-reacted moieties on the biosensor surface were blocked with ethanolamine. Then, purified anti-Siglec15 antibodies of the disclosure at the concentration of 13.3 nM and an anti-Siglec15 benchmark (ch5G12, also referred to as BM, see U.S. Patent Publication No. 20190202912A1, amino acid sequences of the heavy chain and light chain set forth in SEQ ID NOs: 24 and 25, respectively) at 13.3 nM, were respectively flowed onto the chip at a flow rate of 10 μL/min. Then, serially diluted recombinant human Siglec15-his protein (in house made, amino acid sequence set forth in SEQ ID NO: 20) or cynomolgus monkey Siglec15-his protein (in house made, amino acid sequence set forth in SEQ ID NO: 21), 2-fold serial dilution in HBS-EP⁺ buffer starting at 80 nM, were respectively flown onto the chip at a flow rate of 30 μL/min. The antigen-antibody association kinetics was followed for 2 minutes and the dissociation kinetics was followed for 10 minutes. The association and dissociation curves were fit to a 1:1 Langmuir binding model using BIAcore evaluation software.
On the technique in general: In SPR one partner is held on a chip, and binding of the other changes the refractive index at the surface.

The target of test [3] is T3, cynomolgus monkey Siglec15-his protein (cynomolgus monkey).
T3 construct: In house made; also called Cynomolgus Siglec15-his; cynomolgus Siglec15
T3 chain: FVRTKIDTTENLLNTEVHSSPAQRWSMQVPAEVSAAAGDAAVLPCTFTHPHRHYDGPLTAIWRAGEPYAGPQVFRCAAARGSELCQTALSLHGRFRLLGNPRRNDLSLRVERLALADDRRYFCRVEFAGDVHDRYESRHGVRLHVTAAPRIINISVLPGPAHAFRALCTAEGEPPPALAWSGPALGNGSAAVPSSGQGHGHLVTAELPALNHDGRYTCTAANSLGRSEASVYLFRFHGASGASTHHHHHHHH
Described as above. As to the method:
as §1

In test [4] the target is T4, human Siglec15-Fc protein (human).
T4 construct: In house made; also called recombinant human Siglec15 protein with human IgG1 Fc at the C-terminus
Description: competitive ELISA: coated human Siglec15-Fc, blocked ligand biotin-labeled human LRRC4C-Fc. As to the method:
(§2) Serially diluted anti-Siglec15 antibodies or the controls (starting at 66.67 nM with a 5-fold serial dilution) in PBST with 2.5% w/v non-fatty milk were added to the Siglec15-Fc bound plates, 100 μl per well, and incubated with the human Siglec15-Fc protein at 37° C. for 40 minutes. Plates were washed 4 times again using wash buffer, then added and incubated for 40 minutes at 37° C. with 100 μl/well 290 ng/ml biotin-labeled human LRRC4C-Fc protein (prepared in-house with SEQ ID NO: 23). Plates were washed again using wash buffer. Thereafter, the plates were added with 100 μl/well streptavidin conjugated HRP (1:5000 dilution in PBST buffer, Jackson Immunoresearch, Cat #016-030-084) and incubated for 40 minutes at 37° C. Plates were washed again using wash buffer. Finally, TMB was added and the reaction was stopped using 1M H₂SO₄, and the absorbance of each well was read on a microplate reader using dual wavelength mode with 450 nm for TMB and 630 nm as the reference wavelength, then the OD (450-630) values were plotted against antibody concentration. Data was analyzed using Graphpad Prism software and IC₅₀ values were reported.
(In general: In an ELISA, binding on a coated surface is turned into a signal by an enzyme label.)

Test [5] addresses T4, human Siglec15-Fc protein. The test is described as above. As to the method: as §2
Target sequence in this assay (chain, as listed by the source limits assumed): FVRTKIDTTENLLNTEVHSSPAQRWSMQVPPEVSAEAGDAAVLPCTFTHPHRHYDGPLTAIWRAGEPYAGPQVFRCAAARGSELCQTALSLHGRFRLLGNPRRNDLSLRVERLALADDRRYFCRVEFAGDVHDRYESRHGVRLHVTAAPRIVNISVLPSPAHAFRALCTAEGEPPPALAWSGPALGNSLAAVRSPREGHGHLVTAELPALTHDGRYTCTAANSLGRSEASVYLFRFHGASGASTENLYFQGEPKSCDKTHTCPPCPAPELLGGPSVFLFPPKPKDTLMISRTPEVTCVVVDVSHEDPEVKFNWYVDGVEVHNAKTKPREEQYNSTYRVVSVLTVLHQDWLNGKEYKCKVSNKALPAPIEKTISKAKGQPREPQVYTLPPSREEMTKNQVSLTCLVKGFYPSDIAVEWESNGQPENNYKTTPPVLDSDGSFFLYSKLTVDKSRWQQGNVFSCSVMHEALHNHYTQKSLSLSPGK
This is another data set of the same source.

B1: anti-Siglec15 benchmark (ch5G12) (antibody, human IgG1, kappa, V domains shown)
VH: QVQLQQPGAELVKPGASVKMSCKASGYTFTSYWITWVIQRPGQGLEWIGDIYCGSDTMHYNEKFKNKATLTVDTSSSTAYMQLSSLTSEDSAVYYCARWWDYGSSYDYFDYWGQGTTLTVSS
VL: DIKMTQSPSSMYASLGERVTITCKASQDINSYLSWFQQKPGKSPKTLIYRANRLVDGVPSRFSGSGSGQDYSLTISSLEYEDMGIYYCLQYDEFPYTFGGGTKLEIKR
notes: ch5G12 (US 20190202912A1); also called BM; Siglec15-ch5G9
For the molecule B1, a half-maximal effect in test [1] (EC50) was put at 11.6 nM. For the same molecule, in test [2], the Kd was 0.265 nM, the koff stood at 0.00172 s⁻¹ and the kon turned out to be 6.51e+06 M⁻¹ s⁻¹. In addition, in test [3], the Kd was 0.448 nM, the koff worked out at 0.000788 s⁻¹ and the on-rate (kon) came to 1.76e+06 M⁻¹ s⁻¹. Besides, the IC50 in test [4] stood at 0.751 nM. Further, the IC50 in test [5] is 0.674 nM.

B2: A1E10G7H9 (antibody, V domains shown)
VH: QVQLQESGPGLVKPSGTLSLTCAVSGGSISSSNWWHWVRQPPGKGLEWIGEIYHSGNTNYKPSLKSRVTISVDKSKNQFSLKLSSVTAADTAVYYCARDEGNGWSNAFDIWGQGTMVTVSS
VL: ENVLTQSPGTLSLSPGERVTLSCRASQSVSSSYLAWYQQKPGQAPRFLIYGASGGATGIPDRFSGSGSGTDFTLTISRLEPEDFAVYYCQQYGSSPITFGQGTRLEIK
notes: Fully human antibody from transgenic mouse hybridoma
With B2, in test [2], the Kd was found to be 0.0139 nM, the koff is 0.0001 s⁻¹ and the kon stood at 7.18e+06 M⁻¹ s⁻¹. In test [3], this molecule returned a Kd of 0.0269 nM, a koff of 0.000104 s⁻¹ and a kon of 3.89e+06 M⁻¹ s⁻¹. Also, the IC50 in test [4] was determined as 1.24 nM.

B3: B2D7H7A3C1 (antibody, V domains shown)
VH: QVQLQQSGAELVRPGTSVQMSCKAAGYTFTNYWIGWVKQRPGHGLEWVGDIHPGINYTNNNEKFRGKATLTADTSSNTAYMQLRGLTSDDSAIYYCARVDYDYDGSYIMDYWGQGTSVTVSS
VL: QIVLSQSPALLSASPGEKVTMTCRASSSVSYMYWYQQKPGSSPKPWIYATSNLTSGVPARFSGSGSGTSYSLTISRVEAEDAATYFCQQWNSKPWTFGGGSKLEIR
notes: Mouse monoclonal antibody from hybridoma; also called mouse B2D7H7A3C1
In test [1], B3 showed an EC50 of 0.998 nM.

B4: B2H2H1H7 (antibody, V domains shown)
VH: QVQLQQSGAELVRPGTSVQMSCKAAGYTFTNYWIGWVKQRPGHGLEWVGDIHPGINYTNNNEKFRGKATLTADTSSSTAYMQLRGLTSDDSAIYYCARVDYDYDGSYIMDYWGQGTSVTVSS
VL: QIILSQSPALLSASPGEKVTMTCRASSSVSYMYWYQQKPGSSPKPWIYATSNLTSGVPARFSGSGSGTSYSLTISRVEAEDAATYFCQQWNSKPWTFGGGSRLEIR
notes: Mouse monoclonal antibody from hybridoma; also called mouse B2H2H1H7; B2H2H1A7
With B4, the EC50 in test [1] came to 1.91 nM.

B5: B2G12H3E8 (antibody, V domains shown)
VH: QVQLKQSGAELVRPGTSVQMSCKAVGYTFTNYWIGWVKQRPGHGLEWVGDIHPGINYTNNNEKFRGKATLTADTSSSTAYMQLRGLTSDDSAIYYCARVDYDYDGSYIMDYWGQGTSVTVSS
VL: QIVLSQSPALLSASPGEKVTMTCRASSSVSYMYWYQQKPGSSPKPWIYATSNLTSGVPARFSGSGSGTSYSLTISRVEAEDAATYFCQQWNSKPWTFGGGSKLEIR
notes: Mouse monoclonal antibody from hybridoma; also called mouse B2G12H3E8
In the case of B5, the EC50 in test [1] worked out at 1.17 nM.

B6: A2A5C7E8 (antibody, V domains shown)
VH: EVQLVQSGAEVKKPGESLRISCKGSGYSFTTYWISWVRQMPGKGLEWMGLIDPSDSYTNYSPSFQGHVTISTDKSISTAYLQWSSLKASDTAMYYCARGGYYGSEEDYWGQGTLVTVSS
VL: EIVLTQSPGTLSLSPGERATLSCRASQSVSSSRLAWFQQKSGQAPRLLIFDASSRATGIPDRFSGSGSGTDFTLTISRLEPEDFAVYYCQQYGSSPRTFGQGTKVEFK
notes: Fully human antibody from transgenic mouse hybridoma; also called A2A5C7E8-1
As for B6, in test [2], the dissociation constant (Kd) was 0.041 nM, the koff turned out to be 9.98e-05 s⁻¹ and the on-rate (kon) was 2.43e+06 M⁻¹ s⁻¹. Further, in test [3], binding was put at a Kd of 0.0681 nM, the koff came out at 8.49e-05 s⁻¹ and the kon was determined as 1.25e+06 M⁻¹ s⁻¹. Moreover, the IC50 in test [4] was 0.84 nM. Also, in test [5], the IC50 amounted to 0.394 nM.

B7: A2A5C7E8-2 (antibody, human IgG1, kappa, V domains shown)
VH: EVQLVQSGAEVKKPGESLRISCKGSGYSFTTYWISWVRQMPGKGLEWMGLIDPSESYTNYSPSFQGHVTISTDKSISTAYLQWSSLKASDTAMYYCARGGYYGSEEDYWGQGTLVTVSS
VL: EIVLTQSPGTLSLSPGERATLSCRASQSVSSSRLAWFQQKSGQAPRLLIFDASSRATGIPDRFSGSGSGTDFTLTISRLEPEDFAVYYCQQYGSSPRTFGQGTKVEFKR
notes: Variant of A2A5C7E8 modified in VH CDR2 (X1 = E)
Turning to B7, the IC50 in test [5] was found to be 0.446 nM.

B8: A2A5C7E8-3 (antibody, human IgG1, kappa, V domains shown)
VH: EVQLVQSGAEVKKPGESLRISCKGSGYSFTTYWISWVRQMPGKGLEWMGLIDPSDSYTNYSPSFKGHVTISTDKSISTAYLQWSSLKASDTAMYYCARGGYYGSEEDYWGQGTLVTVSS
VL: EIVLTQSPGTLSLSPGERATLSCRASQSVSSSRLAWFQQKSGQAPRLLIFDASSRATGIPDRFSGSGSGTDFTLTISRLEPEDFAVYYCQQYGSSPRTFGQGTKVEFKR
notes: Variant of A2A5C7E8 modified in VH CDR2 (X2 = K)
With B8, in test [5], the IC50 came to 0.546 nM.
